From the RNAGym collection of RNA variant scans (doi:10.7554/elife.80360)

B1: Twister Ribozyme (parent)
chain: AACACUGCCAAUGCCGGUCCCAAGCCCGGAUAAAAGUGGAGGGGGCGG

Variants of: B1
Test: self-cleavage, relative activity (ratio to wild type); higher = more cleavage; co-transcriptional

Compared with AACACUGCCAAUGCCGGUCCCUAGCCCGGAUAAAAGUGUAGGGGGCGG, AACACUGCCAAUGCCGGUCCCUAGCCCGGAUAAAAGUGGAAGGGGCGG is higher in self-cleavage: 0.0706 for the first, 0.102 for the second.

First: AACACUGCCAAUGCCGGUCCCUAGCCCGGAUAAAAGUGGACGGGGCGG
Second: AACACUGCCAAUGCCGGUCCCUAGCCCGGAUAAAAGUGGAGAGGGCGG
The self-cleavage of the first is higher: 0.142 for the first, 0.126 for the second.

Compared with AACACUGCCAAUGCCGGUCCCUAGCCCGGAUAAAAGUGGAGGCGGCGG, AACACUGCCAAUGCCGGUCCCUAGCCCGGAUAAAAGUGGAGGGCGCGG is higher in self-cleavage: 0.129 for the first, 0.836 for the second.

Going from AACACUGCCAAUGCCGGUCCCUAGCCCGGAUAAAAGUGGAGGGUGCGG to AACACUGCCAAUGCCGGUCCCUAGCCCGGAUAAAAGUGGAGGGGACGG, the self-cleavage falls from 0.812 to 0.678.

Compared with AACACUGCCAAUGCCGGUCCCUAGCCCGGAUAAAAGUGGAGGGGGCAG, AACACUGCCAAUGCCGGUCCCUAGCCCGGAUAAAAGUGGAGGGGGCCG is lower in self-cleavage: 0.582 for the first, 0.216 for the second.

First: AACACUGCCAAUGCCGGUCCCUAGCCCGGAUAAAAGUGGAGGGGGCGA
Second: AACACUGCCAAUGCCGGUCCCUAGCCCGGAUAAAAGUGGAGGGGGCGC
The self-cleavage of the first is lower: 0.666 for the first, 0.954 for the second.

Compared with AACACUGCCAAUGCCGGUCCCUAGCCCGGAUAAAAGUGGAGGGGGCGU, AACACUGCCAAUGCCGGUCCCUAGCCCGGACAAAAGUGGAGGGGGCGG is higher in self-cleavage: 0.911 for the first, 0.935 for the second.

First: AACACUGCCAAUGCCGGUCCCUAGCCCGGAUAAAAGAGGAGGGGGCGG
Second: AACACUGCCAAUGCCGGUCCCACGCCCGGGUAAAAGUGGAGGGGGCGG
The self-cleavage of the first is lower: 0.256 for the first, 0.385 for the second.

First: AACACUGCCAAUGCCGGUCCCACGCCCGGAUUAAAGUGGAGGGGGCGG
Second: AACACUGCCAAUGCCGGUCCCACGCCCGGAUACAAGUGGAGGGGGCGG
The self-cleavage of the first is higher: 0.241 for the first, 0.0964 for the second.

First: AACACUGCCAAUGCCGGUCCCACGCCCGGAUAGAAGUGGAGGGGGCGG
Second: AACACUGCCAAUGCCGGUCCCACGCCCGGAUAUAAGUGGAGGGGGCGG
The self-cleavage of the first is lower: 0.0917 for the first, 0.13 for the second.

Compared with AACACUGCCAAUGCCGGUCCCACGCCCGGAUAAGAGUGGAGGGGGCGG, AACACUGCCAAUGCCGGUCCCACGCCCGGAUAAACGUGGAGGGGGCGG is higher in self-cleavage: 0.135 for the first, 0.227 for the second.

Compared with AACACUGCCAAUGCCGGUCCCACGCCCGGAUAAAGGUGGAGGGGGCGG, AACACUGCCAAUGCCGGUCCCACGUCCGGAUAAAAGUGGAGGGGGCGG is higher in self-cleavage: 0.0714 for the first, 0.116 for the second.

Going from AACACUGCCAAUGCCGGUCCCACGCUCGGAUAAAAGUGGAGGGGGCGG to AACACUGCCAAUGCCGGUCCCACGCCAGGAUAAAAGUGGAGGGGGCGG, the self-cleavage rises from 0.0813 to 0.0984.

First: AACACUGCCAAUGCCGGUCCCACGCCGGGAUAAAAGUGGAGGGGGCGG
Second: AACACUGCCAAUGCCGGUCCCACGCCCGGAUAAAAGUGGAGGGGGAGG
The self-cleavage of the first is lower: 0.0848 for the first, 0.164 for the second.

First: AACACUGCCAAUGCCGGUCCCACCCCCGGAUAAAAGUGGAGGGGGCGG
Second: AACACUGCCAAUGCCGGUCCCACGCCCUGAUAAAAGUGGAGGGGGCGG
The self-cleavage of the first is lower: 0.124 for the first, 0.161 for the second.

First: AACACUGCCAAUGCCGGUCCCACGCCCGCAUAAAAGUGGAGGGGGCGG
Second: AACACUGCCAAUGCCGGUCCCACGCCCGUAUAAAAGUGGAGGGGGCGG
The self-cleavage of the first is lower: 0.0814 for the first, 0.124 for the second.

Going from AACACUGCCAAUGCCGGUCCCACGCCCGGAUAAAAAUGGAGGGGGCGG to AACACUGCCAAUGCCGGUCCCACGCCCGGAUAAAAUUGGAGGGGGCGG, the self-cleavage rises from 0.09 to 0.0946.

Compared with AACACUGCCAAUGCCGGUCCCACGCCCGGAUAAAAGUCGAGGGGGCGG, AACACUGCCAAUGCCGGUCCCACGCCCGGAUAAAAGUGUAGGGGGCGG is lower in self-cleavage: 0.219 for the first, 0.0921 for the second.

Compared with AACACUGCCAAUGCCGGUCCCACGCCCGGAUAAAAGUGGACGGGGCGG, AACACUGCCAAUGCCGGUCCCACGCCCGGAUAAAAGUGGAGGAGGCGG is higher in self-cleavage: 0.112 for the first, 0.117 for the second.

Compared with AACACUGCCAAUGCCGGUCCCACGCCCGGAUAAAAGUGGAGGGAGCGG, AACACUGCCAAUGCCGGUCCCACGCCCGGAUAAAAGUGGAGGGCGCGG is lower in self-cleavage: 0.478 for the first, 0.212 for the second.

Going from AACACUGCCAAUGCCGGUCCCACGCCCGGAUAAAAGUGGAGGGUGCGG to AACACUGCCAAUGCCGGUCCCACGCCCGGAUAAAAGUGGAGGGGCCGG, the self-cleavage falls from 0.195 to 0.125.

Compared with AACACUGCCAAUGCCGGUCCCACGCCCGGAUAAAAGUGGAGGGGGCAG, AACACUGCCAAUGCCGGUCCCACGCCCGGAUAAAAGUGGAGGGGGCUG is higher in self-cleavage: 0.127 for the first, 0.145 for the second.

First: AACACUGCCAAUGCCGGUCCCACGCCCGGAUAAAAGUGGAGGGGGCGC
Second: AACACUGCCAAUGCCGGUCCCACGCCCGGAUAAAAGAGGAGGGGGCGG
The self-cleavage of the first is higher: 0.211 for the first, 0.088 for the second.

Compared with AACACUGCCAAUGCCGGUCCCACGCCCGGAUAAAAGGGGAGGGGGCGG, AACACUGCCAAUGCCGGUCCCAGGCCCGGGUAAAAGUGGAGGGGGCGG is higher in self-cleavage: 0.0666 for the first, 0.647 for the second.

Compared with AACACUGCCAAUGCCGGUCCCAGGCCCGGUUAAAAGUGGAGGGGGCGG, AACACUGCCAAUGCCGGUCCCAGGCCCGGAUCAAAGUGGAGGGGGCGG is lower in self-cleavage: 0.587 for the first, 0.366 for the second.

First: AACACUGCCAAUGCCGGUCCCAGGCCCGGAUGAAAGUGGAGGGGGCGG
Second: AACACUGCCAAUGCCGGUCCCAGGCCCGGAUAAUAGUGGAGGGGGCGG
The self-cleavage of the first is higher: 0.402 for the first, 0.15 for the second.

First: AACACUGCCAAUGCCGGUCCCAGGGCCGGAUAAAAGUGGAGGGGGCGG
Second: AACACUGCCAAUGCCGGUCCCAGGCGCGGAUAAAAGUGGAGGGGGCGG
The self-cleavage of the first is lower: 0.0343 for the first, 0.107 for the second.
